The values below come from patent publication US20200197469A1.

Assay [1] has as its target purified HIV-1 gp120 (HIV-1). Description: cell-based or functional assay.
Assay [2] deals with purified HIV-1 gp120 (HIV-1). In words: SPR (Biacore); gp120 immobilized on the chip, MOMO30 flowed at 6.25 nM to 200 nM; triplicate on separate days.

The term Kd denotes the equilibrium constant for the complex coming apart. The low end stands for higher affinity, the high end for lower affinity.

Consider MOMO30 protein from Momordica balsamina, for which, in assay [1], the IC50 in MAGI infectivity assay, HIV-1 lab strain NL4-3 came to 32 pM. This substance also registered a Kd in assay [2] of 5.8 µM.
